The text below walks through data of the nanobody polyreactivity screen of Harvey et al. (2022).

A short description of the data set: yeast display, Sf9 membrane polyspecificity reagent, FACS + sequencing; frameworks hold sequencing errors. The method in brief: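 After 36–48 hours of galactose induction, yeast (Saccharomyces cerevisiae BJ5465) displaying a synthetic nanobody library were stained at 4 °C for 1 hour with 10% biotinylated, detergent-solubilized Sf9 membrane reagent. Streptavidin microbeads enriched the stained cells before FACS sorting into low and high (top ~1%) gates on anti-HA and streptavidin fluorescence. Each clone's polyreactivity label reflects its gate of origin.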
Regarding “QVQLVESGGALVQAAGSLRLSCAASGRTFRRNTMGWYRQAPGKERELVAAISSSGSSTYYADSVKGRFTISRDNEKNTVYLQMNSLKPEDTAVYYCAATGSRRFGYWGQGTQVTVSS”, the “polyreactivity (PSR sort gate)” value was “high polyreactivity”.
Regarding “QVQLVESGGGLVQAGGSLRLSCAASGLTFSLNAMGGYRQAPGKERELVAAIRGSGGSTYYADSVKGRFTISRDNAKNTVYLQMNSLKPEDTAVYYCNADQLVWQRYGVLYEYDYWGQGTQVTVSS”, the “polyreactivity (PSR sort gate)” value is recorded as “high polyreactivity”.
On to “QVQLVESGAGLVQAGGSLRLSCAASGSTLVTNAMGWYRQAPGKERELVAAITFSGGTTYYADSVKGRFTISRDNAKNTVYLQMNSLKPEDTAVYYCAAEIWLEYVGYDYWGQGTQVTVSS”, for which the “polyreactivity (PSR sort gate)” value was “high polyreactivity”.
For “QVQLVESGGGLVQAGGSLRLSCAASGSNFDYYAMGWYRQAPGKERELVAAISSTDGSTFYADSVKGRFTISRDNAKNTVYLQMNSLKPEDTAVYYCAVVGYYYPWPNGYDYWGQGTQVTVSS” the value was “low polyreactivity”; for “QVQLVESGGGLVQAGGSLRLSFAASGSIFTPNVMGWYRPAPGKERELVAAISQSGGSTFYADSVKGRFTISRDNAKNTVYLQMNSLKPEDTAVYFCATEYYGPVYDLDYDYWGQGTQVTVSS”, “low polyreactivity”; for “QVQLVESGGGLVQAGGSLRLSCAASGSTFRIYAMGWYRQAPGKERELVARISWNGGRTYYADSVKGRFTISRDNAKNTVYLQMNSLKPEDTAVYYCNARSQGWYYFPDNDYWGQGTQVTVSS”, “high polyreactivity”.
Turning to “QVQLVESGGGLVQAGGSLRLSCAASGRIFSLYAMGWYRQAPGKERELVAAISRGGSTYYADSVKGRFTISRDNAKNTVYLQMNSLKPEDTAVYYCAAAPDYRAEYDYWGQGTQVTVSS”, the “polyreactivity (PSR sort gate)” value is given as “low polyreactivity”.
The same measure for “QVQHVESGGGLVQAGGSLRLSCAASGSTFYLYAMGWYRQAPGTERELLAAITYSGDRTRYADSVKGRFTISRDNAKNTVYLQMNSLKPEDTAVYYCAAPYVGARNAYRMCYWGQGTQVTVSS”: “high polyreactivity”.
As for “QVQLVESGGGLVQAGGSLRLSCAASGSTFAFYAMGWYRQAPGKEREFVAAITWDGGTTYYADSVKGRFTISLDNAKNTVYLQMNSLKPEDTAVYYCATQYLSYLYAGRYDYWGQGTQVTVSS”, the “polyreactivity (PSR sort gate)” value was “low polyreactivity”.
With “QVQLVESGGGLVQAGGSLRLSCAASGITFNYYAMGWYRQAPGKERELVAAISWSGDRTYYADTVKGRFTISRDNAKYTVYLQMNSLKPEDTAVYYCAAKSVGEGDYWGQGTQVTVSS”, the “polyreactivity (PSR sort gate)” value is “low polyreactivity”.
Consider “QVQLVESGGGLVQAGGSLRLSCAASGFTFVHNAMGWYRQAHGKERELVAAISSSGGRTYYADSVKGRFTISRDNAKNTVYLQMNSLKPEDTAVYYCATVNRYGPSYGYWGQGTQVTVSS”, for which the “polyreactivity (PSR sort gate)” value is “high polyreactivity”.
On to “QVQLVESGGGLVQAGGSLRLSCAASGSIFGGYAMGWYRQAPGKERELVAAISSGGSTYYADSVKGRFTISRDNAKNTVYLQMNSLKPEDTAVYYCATSTYADRRNSYYYTRPRFGYWGQGTQVTVSS”, for which the “polyreactivity (PSR sort gate)” value is “high polyreactivity”.
In the case of “QVQLVESGGGLVQAGGSRRLSCAASGRTFPYNAMGWYRQATGKERELVATNDSSGTRTFYADSVKGRFTISRDNAKNTVYLQLNRLKPEDNAVYYCAAGIIYSNETNITSYDYWGQGTQVTVSS”, the “polyreactivity (PSR sort gate)” value is “low polyreactivity”.
The same measure for “QVQLVESGGGLVQAGGSLRLRCAASGSIFFYYVMGWYRQAPGKEREFVAAITYSGGSTYYADSVKGRFTISRDNAKNTVYFQMNSMQQEDTAVYYCAADYSPSIGGFWFGGRHYGYWGQGTQVTVSS”: “low polyreactivity”; for “QVQLVESGGGLVQAGGSLRLSCAASRLTFAGNAMGWYRQAPGKEREFVATITWSDGSTRYADSVKGRFTISRDNAKNSVYLQMNSLKPEDTAVSYCNTQYPDYFYEFNYWGQGTQVTVSW”: “low polyreactivity”.
The same measure for “QVQLVESGGGLVQAGGSLRLSCAASGSIFSRNAMGWYRQAPGKERELVASMSWRGGSTNYADSVKGRFTISRDNAKNTVYLQMNSLKPEDTAVYYCNAPYRHQPGGGYWGQGTQVTVSS”: “low polyreactivity”.
As for “QVQLVESGGGLVQAGGSLRLSCAASGRTFHVYAMGWYRPAPGKERELVATITDGSTNYADSVKGRFTISRDNAKNTVYLQMNSLKPEDSAVYYCATVRAWIPSGDYEYWGQGTQVTVSS”, the “polyreactivity (PSR sort gate)” value was “low polyreactivity”.
For “QVQLVESGGGLVQAGGSLRLSCAASGLTFAYYGMGWYRQAPGKEMELVAAITSSGGSTYYADSVKGRFTISRDNAKNTVYLQMNSLKPEDTAVYYCAAFVRQYGFDYWGQGTQVTVSS” the value was “low polyreactivity”; for “QEQLQESGSGLVQAGGSLRLSCAASGNIFQDWVMGWYRKAPGQERELVAAISPGAITYYADSVKGRFTISRDNAKNSVYLQTKSLKPEDTAVYYCGAYYIVEYLHGYWGQGTRVTVSS”, “low polyreactivity”; for “QVQLVESGGGLVQAGGSLRLSCAASGRFFSWNAMGWYRPAPGTERELVAAISSSVGSTYYADSVKGRFTISRDNAQNTVYFQMNSRKPEDTAVYYCNAVPIGQWAYDYWGQGTQVTVSS”, “high polyreactivity”.
Consider “QVQVVESGGGLVQAGGSLRLSCAASGSIFGANTMGWYRPAPGKERELVAAISSGGNTYYADSVKGRFTISRDNAKNTVYLQMNSLKPEDTAVYYCNAQTRYLYQYGYLGGTGYNYWGQGTQVTVSS”, for which the “polyreactivity (PSR sort gate)” value is “low polyreactivity”.
“QVQLVESGGGLVQAGGSLRLSCAASGRTFYYYAMGWYREAPGKERELVAAINSGVTTSYADSVKGRFTISRDNAKNTVYLQMNSLKPEDTAVYYCAARTFSAFWRGGYDYWGQGTQVTVSS”: the “polyreactivity (PSR sort gate)” value is listed as “low polyreactivity”.
For “QVQLEESGGGLVQAGGSLRLSCAASGLTFGDYTMGWYRQAPWKERELVAAITSRGGRTYYADSVKGRFTISRDNAKNTVYLQMNSLTPEDTAVYYCAADDLRIKRVGFDYWGQGTQVTVSS”, the “polyreactivity (PSR sort gate)” value is “high polyreactivity”.
Turning to “QVKLVESGGGLVQAGGSLRLSCAASGFTFISNAMGWYRQAPGKERELVAAISSSGGRTYYADSVKGRFTISRDNAKNTVYLQMNSLKPEDTAVYYCNADRSLLYSRKIEYDYWGQGTQVTVSS”, the “polyreactivity (PSR sort gate)” value is “low polyreactivity”.
The same measure for “QVQLVESGGGLVQSGGSLRLSCAASGFTFSRYAMGWYRQAPGKERELVAAIRLRDGITYYADSVKVRFTISRDNAKNTVYLQMNSLKPEDTAVYYFNAVNRTPVSQLDYWGQGTQVTVSS”: “high polyreactivity”; for “QVQLVESGGGLVQAGGSLRLSCAASGRTFRTYVMGWYRQAPGKEREFVAGITWSSGSTRYADSVKGRFTISRDNAKNTVYLQMNSLKPEDTAVYYCAASRVHSYNPGYPRYYYWGQGTQVTVSS”: “high polyreactivity”; for “QVQLVESGGGLVQAGGSLRLSCAASGYIFGWYTMGWYRQAPGKEREFVASISNSDASTYYADSVKGRFTISRDNAKNTVYLQMNSLKPEDTAVYYCAADTTYWHWIYYYWGQGTQVTVSS”: “low polyreactivity”.
Turning to “QVQLVESGGGLVQAGGSLRLSCAASGSTIVYYAMGWYRQAPGKERELVAAINYSSGSTYYADSVKGRFTISRDNSKNTVYLQMNSLKPEDTAVYYCATDLLYYQYYSEYDYWGQGTQVTVSS”, the “polyreactivity (PSR sort gate)” value is “high polyreactivity”.
Consider “QVQLVESGGGLVQAGGSLRLSCAPSGITFVKNVMGWYRQAPGKEREFVAAISTIGARTYYADSVKGRFTISRDNAKNTVYLQMNSLIPEDTAVYYCNAYKSGYGQEYDYWGQGTQVTVSS”, for which the “polyreactivity (PSR sort gate)” value is “high polyreactivity”.
For “QVQLVESGGGLVQAGGSLRLSCAASGSIFYYYAMGWYRQAPGKERELVASISSSGSTNYADSVKGRFTISRDNAKNTVYLLMKRLKPEDTAVYYCYADLSLGSYYSYYAYNSWGQGTQVTVSS” the value was “low polyreactivity”; for “QVQLEESGGGLVQAGGSLRLSCAASGRIFGIYAMGWYRQAPGKERELVASITDGTITNYADSVKGRFTISRDNAKNTVYLQMNSLKPEDTAVYYCAAGTQAHAFVVRPIEMDYWGQGTQVTVSS”, “low polyreactivity”.
Turning to “QFQLVESGGGLVQAGGSLLLSCAASGTFGVYAMGWYRQAPGKERELVAVITDSGGTNYADSVKGRFTISRDNAKNTVFLQMNSLKPEDTAVYYCNTDAGDYYGENYWGQGTQVTVSS”, the “polyreactivity (PSR sort gate)” value is given as “low polyreactivity”.
With “QVQLVESGGGLVQAGGSLRLSCAASGIIFYGYAMGWYRQAPGKERELVAAISRSGGSTYYADSVKGRFTISRDNAKNTVYLQMNSLKPEDTAVYYCAAVAYPGKGNRGNYDYWGQGTQVTVSS”, the “polyreactivity (PSR sort gate)” value is “high polyreactivity”.
Consider “QVQLVESGGGLVQAGGSLRLSCAASGRTFGKYAMGWYRQAPGKESELVAAITNSGGSTYYADSVKGRFTISRDNAKNTVYLQMNSLKPEDTAVYYCNRLGYRGPSKLNHMGYWGQGTQVTVSS”, for which the “polyreactivity (PSR sort gate)” value is “high polyreactivity”.
Turning to “QVQLVESGGGLVQAGGSLRLSCAASGFTFYEYSMGWYRQAPGKERELVAAINWNGGRTYYADSVKGRFTISRDNAKNTVYLQMNSLKPEDTAVYYCAARVAPKTKIYRRYYWGQGTQVTVSS”, the “polyreactivity (PSR sort gate)” value was “high polyreactivity”.
“QVQLVESGGGLVQAGGTLRLSCAPSGSTFYANTMGWYRPAPGKERELVATISWTGSSTYYADSVKGRFTISRDNAKNTVYLQMNSLNPEDTAVYYCNKRYYYRRNYWGQGTQVTVSS”: the “polyreactivity (PSR sort gate)” value was “high polyreactivity”.
In the case of “QVQLVESGGGLVQAGGSLRLSCAASGRTFTTYAMGWSRQAPGKERELVAAISSGGSTHYADSVKGRFTISRDNAKYTVYLQMNSLKPEDTAVYYCAADKYYYRTSGQEMDYWGQGTQVTVSS”, the “polyreactivity (PSR sort gate)” value is “high polyreactivity”.
Turning to “QVQLVESGGGLVQAGGSLRLSCAASGSTFVGNAMGWYRQAPGKERELVAAISSDSSTYYADSVKGRFTISRDNAKNTVYLQMNSLKPEDTAVYYCAEYYPGYGYGYWGQGTQVTVSS”, the “polyreactivity (PSR sort gate)” value is “low polyreactivity”.
For the sequence “QVQLVESGGGLVQAGGSLRLSCAASGRTFYYYAMGWYRQAPGKERELVAAITGSGANTYYADSVKGRFTISRDNAKNTVYLQMNSLKPEDTAVYYCNTRTLVAMGYWGQGTQVTVSS”, the “polyreactivity (PSR sort gate)” value is reported as “high polyreactivity”.
Turning to “QVQLVESGGGLVQAGGSLRLSCAASGSIFFFNAMGWYRQAPGKVREFVAAITSSSGRTYYADSVKGRFTISRDNAKNTVYLQMNSLKPEDTAVYYCAAQVPEDTETVDYWGQGTQVTVSS”, the “polyreactivity (PSR sort gate)” value is reported as “low polyreactivity”.
